This is an account of results in patent US20200299342A1.

One may read the EC50 as the concentration needed to bring the measured effect to its halfway point. Higher therefore signals weaker potency. For orientation: Kd means the free concentration of one partner at which half of the binding sites on the other are occupied at equilibrium, for simple one-to-one binding.

Experiment [1] deals with Skp1tr-F-box^Fbw7 complex (human) (UniProt P63208). Briefly: ELISA. In general terms: In an ELISA, binding on a coated surface is turned into a signal by an enzyme label.
Target sequence in this assay (P63208 other isoform, or with tags, fused parts or gaps, chain 1 of 2): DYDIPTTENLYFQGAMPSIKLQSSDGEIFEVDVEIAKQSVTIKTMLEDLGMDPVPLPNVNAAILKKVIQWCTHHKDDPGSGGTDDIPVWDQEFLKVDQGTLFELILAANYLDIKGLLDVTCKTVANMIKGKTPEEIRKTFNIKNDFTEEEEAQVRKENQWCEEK
Target sequence in this assay (Q969H0 other isoform, or with tags, fused parts or gaps, chain 2 of 2, further chain): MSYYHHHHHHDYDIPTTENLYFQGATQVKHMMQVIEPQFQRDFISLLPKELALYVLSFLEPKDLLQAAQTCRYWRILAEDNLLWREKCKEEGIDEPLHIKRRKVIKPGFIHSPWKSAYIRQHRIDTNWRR
Experiment [2] has the same target. Description: SPR. A general note: SPR reads the build-up and loss of mass on a sensor chip optically.
Target sequence in this assay (P63208 other isoform, or with tags, fused parts or gaps, chain 1 of 2): as the sequence (P63208 other isoform, or with tags, fused parts or gaps, chain 1 of 2) above
Target sequence in this assay (Q969H0 other isoform, or with tags, fused parts or gaps, chain 2 of 2, further chain): as the sequence (Q969H0 other isoform, or with tags, fused parts or gaps, chain 2 of 2, further chain) above
Experiment [3] has the same target. Description: SPR, complex immobilised, Cul1 NTD injected.

On to “Cul1 N-terminal domain (NTD) (from UniProt Q13616 1-410)”, for which the concentration giving a half-maximal response (EC50) in experiment [1] came to 11 nM. Moreover, in experiment [2], the dissociation constant Kd is 3.6 nM. In addition, the fold weaker than with Skp1-F-box^Fbw7 in experiment [3] worked out at 1000 fold.
